# Results: US20100150950A1, “HUMAN ANTIBODIES THAT BIND CD70 AND USES THEREOF” (Medarex, Inc., priority 2006, published 2010)
# T1: human CD70 expressed on the cell surface (human, UniProt P32970 1-193)
# T1 construct: also called full length CD70 on transfected CHO cells
# T1 sequence: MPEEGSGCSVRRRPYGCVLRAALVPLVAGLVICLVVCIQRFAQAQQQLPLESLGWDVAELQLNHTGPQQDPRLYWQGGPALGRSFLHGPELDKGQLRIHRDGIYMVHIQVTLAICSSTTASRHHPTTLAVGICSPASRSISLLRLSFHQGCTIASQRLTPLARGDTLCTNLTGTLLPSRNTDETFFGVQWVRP
# T2: CD70 expressed on the surface of Raji lymphoma cells (Homo sapiens, UniProt P32970)
# T2 construct: endogenous in cells; host or cells: Daudi (ATCC CCL-213), HuT 78 (TIB-161), Raji (CCL-86), Granta 519 (DSMZ 342)
# T2 sequence (P32970 1-193): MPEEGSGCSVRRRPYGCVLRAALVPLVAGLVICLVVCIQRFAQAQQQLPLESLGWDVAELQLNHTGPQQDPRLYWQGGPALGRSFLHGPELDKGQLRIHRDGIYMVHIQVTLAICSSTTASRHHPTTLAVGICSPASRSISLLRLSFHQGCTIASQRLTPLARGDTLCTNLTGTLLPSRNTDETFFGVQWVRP
# Columns and labels:
# [1] = target: T1, human CD70 expressed on the cell surface; test: flow cytometry on 786-O cells, MFI
# Procedure: Binding of the anti-CD70 human monoclonal antibodies was assessed by incubating 5×10⁵ cells with antibody at a starting concentration of 10 μg/ml and serially diluting the antibody at a 1:3 dilution. The cells were washed and binding was detected with a PE-labeled anti-human IgG Ab. Flow cytometric analyses were performed using a FACSCalibur flow cytometry (Becton Dickinson, San Jose, Calif.).
# [2] = target: T2, CD70 expressed on the surface of Raji lymphoma cells; test: Flow cytometry binding to Raji cells; conditions: antibody 10 μg/ml
# Procedure: Anti-CD70 antibodies were tested for binding to lymphoma cells expressing CD70 on their cell surface by flow cytometry.
# The lymphoma cell lines Daudi (ATCC Accession No. CCL-213), HuT 78 (ATCC Accession No. TIB-161) and Raji (ATCC Accession No. CCL-86) were each tested for antibody binding. Binding of the HuMAb 2H5 anti-CD70 human monoclonal antibody was assessed by incubating 1×10^5 cells with 2H5 at a concentration of 1 μg/ml. The cells were washed and binding was detected with a FITC-labeled anti-human IgG Ab. […] Flow cytometric analyses were performed using a FACSCalibur flow cytometry (Becton Dickinson, San Jose, Calif.). The anti-CD70 monoclonal antibody 2H5 bound to the lymphoma cell lines Daudi, HuT 78 and Raji, as measured by the mean fluorescent intensity (MFI) of staining.
# The lymphoma cell lines Raji and Granta 519 (DSMZ Accession No. 342) were tested for binding of the HuMAb anti-CD70 human monoclonal antibody 2H5 at varying concentrations. Binding of the anti-CD70 human monoclonal antibodies was assessed by incubating 5×10^5 cells with antibody at a starting concentration of 50 μg/ml and serially diluting the antibody at a 1:3 dilution. An isotype control antibody was used as a negative control. The cells were washed and binding was detected with a PE-labeled anti-human IgG Ab. […]
# [3] = test system: HuT 78 cells; test: ADCC fluorescence cytotoxicity assay, HuT 78; assay type: cell-based, human; conditions: target to effector ratio 1:50
# Procedure: In this example, anti-CD70 monoclonal antibodies were tested for the ability to kill CD70+ cell lines in the presence of effector cells via antibody dependent cellular cytotoxicity (ADCC) in a fluorescence cytotoxicity assay.
# Human effector cells were prepared from whole blood as follows. Human peripheral blood mononuclear cells were purified from heparinized whole blood by standard Ficoll-paque separation. The cells were resuspended in RPMI1640 media containing 10% FBS and 200 U/ml of human IL-2 and incubated overnight at 37° C. The following day, the cells were collected and washed four times in culture media and resuspended at 2×10^7 cells/ml. […]
# The CD70+ cell lines ARH-77 (human B lymphoblast leukemia; ATCC Accession No. CRL-1621), HuT 78 (human cutaneous lymphocyte lymphoma; ATCC Accession No. TIB-161), Raji (human B lymphocyte Burkitt's lymphoma; ATCC Accession No. CCL-86) and a negative control cell line L540 (human Hodgkin's lymphoma; DSMZ Deposit No. ACC 72) were tested for antibody specific ADCC to the human anti-CD70 monoclonal antibodies using the Delfia fluorescence emission analysis as follows. […]
# In this example, a defucosylated and non-defucosylated anti-CD70 monoclonal antibody was tested for the ability to kill CD70+cells in the presence of effector cells via antibody dependent cellular cytotoxicity (ADCC) in a fluorescence cytotoxicity assay […]
Molecule,EC50 [1],binding to Raji cells (MFI) [2],"ADCC, % lysis of HuT 78 [3]"
"anti-CD70 human monoclonal antibody 69A7 (antibody, V domains shown, Human IgG from hybridoma; also called HuMAb 69A7; FITC-conjugated 69A7) VH: QVQLQESGPGLVKPSETLSLTCTVSGGSVSSDYYYWSWIRQPPGKGLEWLGYIYYSGSTNYNPSLKSRVTISVDTSKNQFSLKLRSVTTADTAVYYCARGDGDYGGNCFDYWGQGTLVTVSS VL: EIVLTQSPATLSLSPGERATLSCRASQSVSSYLAWYQQKPGQAPRLLIFDASNRATGIPARFSGSGSGTDFTLTISSLEPEDFAVYYCQQRSNWPLTFGGGTKVEIK",6.93 nM,bound,
"2H5 NF: 2H5 HuMAb lacking fucosyl residues, expressed in CHO cell line Ms704-PF (antibody, V domains shown) VH: QVQLVESGGGVVQPGRSLRLSCAASGFTFSSYIMHWVRQAPGKGLEWVAVISYDGRNKYYADSVKGRFTISRDNSKNTLYLQMNSLRAEDTAVYYCARDTDGYDFDYWGQGTLVTVSS VL: EIVLTQSPATLSLSPGERATLSCRASQSVSSYLAWYQQKPGQAPRLLIYDASNRATGIPARFSGSGSGTDFTLTISSLEPEDFAVYYCQQRTNWPLTFGGGTKVEIK",,,increased percentage of specific lysis
